# In patent publication US20220332804A1 (CSL INNOVATION, published 2022):
# Tests used:
# Assay in all cases: SPR, antibody captured, C2 as analyte;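 also: biacore at 37 °C, anti-C2 mAbs held by immobilised goat anti-human IgG, C2 alanine or serine mutants injected, double-referenced sensorgrams fitted to a 1:1 kinetic or steady-state model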
# human C2 S278A = target: T1, human C2 S278A (human, UniProt P06681 21-752)
# T1 sequence: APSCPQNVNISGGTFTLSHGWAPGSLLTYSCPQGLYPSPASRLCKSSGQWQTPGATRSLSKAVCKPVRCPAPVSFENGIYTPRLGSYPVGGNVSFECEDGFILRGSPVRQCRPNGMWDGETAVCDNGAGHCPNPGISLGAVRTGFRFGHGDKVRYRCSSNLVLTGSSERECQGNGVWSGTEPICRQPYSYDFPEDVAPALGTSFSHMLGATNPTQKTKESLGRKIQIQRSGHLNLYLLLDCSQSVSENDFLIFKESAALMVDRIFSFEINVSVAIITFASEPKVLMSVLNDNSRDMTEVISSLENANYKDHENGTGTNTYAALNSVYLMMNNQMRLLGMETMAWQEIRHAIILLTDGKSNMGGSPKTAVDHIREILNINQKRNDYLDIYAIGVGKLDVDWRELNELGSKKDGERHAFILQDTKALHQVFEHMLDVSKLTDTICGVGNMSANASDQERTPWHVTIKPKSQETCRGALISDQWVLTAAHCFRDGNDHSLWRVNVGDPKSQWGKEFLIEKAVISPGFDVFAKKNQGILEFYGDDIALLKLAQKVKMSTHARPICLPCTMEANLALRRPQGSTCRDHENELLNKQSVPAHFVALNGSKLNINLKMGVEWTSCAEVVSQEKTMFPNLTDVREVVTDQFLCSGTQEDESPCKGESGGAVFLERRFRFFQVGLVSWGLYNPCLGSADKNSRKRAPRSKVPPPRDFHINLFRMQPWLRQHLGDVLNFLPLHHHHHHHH
# [1] = target: T2, human complement C2 (wild type) (human, UniProt P06681 21-752)
# T2 construct: Full-length human C2 (NP_000054) with C-terminal 8x His tag, secreted from Expi293F cells and purified from the supernatant; also called WT; huC2
# T2 sequence: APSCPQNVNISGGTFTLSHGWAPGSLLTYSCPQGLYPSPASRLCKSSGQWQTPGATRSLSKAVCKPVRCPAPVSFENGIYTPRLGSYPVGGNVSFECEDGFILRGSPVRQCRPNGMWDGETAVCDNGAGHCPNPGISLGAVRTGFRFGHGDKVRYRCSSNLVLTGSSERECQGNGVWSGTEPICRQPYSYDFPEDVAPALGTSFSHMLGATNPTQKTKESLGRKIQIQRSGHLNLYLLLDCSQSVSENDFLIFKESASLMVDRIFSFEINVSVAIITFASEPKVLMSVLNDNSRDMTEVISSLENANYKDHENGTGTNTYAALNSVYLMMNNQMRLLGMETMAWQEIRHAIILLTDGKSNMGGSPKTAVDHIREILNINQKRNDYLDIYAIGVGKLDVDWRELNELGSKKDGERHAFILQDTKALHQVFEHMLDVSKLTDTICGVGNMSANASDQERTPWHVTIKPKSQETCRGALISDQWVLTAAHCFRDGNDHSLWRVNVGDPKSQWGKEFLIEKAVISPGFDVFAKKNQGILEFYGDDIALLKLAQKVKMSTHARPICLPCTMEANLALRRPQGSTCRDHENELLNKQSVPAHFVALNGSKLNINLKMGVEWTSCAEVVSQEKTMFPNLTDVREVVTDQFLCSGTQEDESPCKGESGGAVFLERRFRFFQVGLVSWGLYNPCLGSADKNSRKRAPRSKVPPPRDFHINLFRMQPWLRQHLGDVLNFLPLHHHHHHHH
# human C2 E686A = target: T3, human C2 E686A (human, UniProt P06681 21-752)
# T3 sequence: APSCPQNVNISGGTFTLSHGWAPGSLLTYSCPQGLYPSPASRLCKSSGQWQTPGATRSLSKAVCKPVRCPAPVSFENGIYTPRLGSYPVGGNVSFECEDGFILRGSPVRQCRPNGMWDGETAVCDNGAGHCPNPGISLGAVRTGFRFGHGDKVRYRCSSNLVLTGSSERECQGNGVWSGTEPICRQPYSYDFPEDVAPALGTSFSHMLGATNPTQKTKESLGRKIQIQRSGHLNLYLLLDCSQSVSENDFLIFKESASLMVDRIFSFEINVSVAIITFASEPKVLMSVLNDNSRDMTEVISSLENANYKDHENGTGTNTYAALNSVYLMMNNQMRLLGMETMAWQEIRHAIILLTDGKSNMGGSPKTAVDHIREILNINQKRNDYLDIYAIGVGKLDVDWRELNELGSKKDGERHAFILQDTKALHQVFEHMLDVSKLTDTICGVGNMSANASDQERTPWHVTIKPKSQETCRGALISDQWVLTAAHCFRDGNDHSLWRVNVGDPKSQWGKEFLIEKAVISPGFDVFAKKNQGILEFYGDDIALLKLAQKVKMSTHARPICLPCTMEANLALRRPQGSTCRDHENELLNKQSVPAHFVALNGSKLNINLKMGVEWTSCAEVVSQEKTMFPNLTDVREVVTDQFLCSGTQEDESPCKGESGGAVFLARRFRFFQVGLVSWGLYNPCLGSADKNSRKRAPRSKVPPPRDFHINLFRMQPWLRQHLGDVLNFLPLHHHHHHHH
binder,measurement,setting,value
"RF16-242 (antibody, human IgG4 S228P, lambda, V domains shown, pH-dependent anti-C2 antibody from a phage display library) VH: EVQLLQSGAEVKKPGESLKISCKGSGYSFTSYWIGWVRQMPGKGLEWMGIIYPGDSDTRYSPSFQGQVTISADKSISTAYLQWSSLKASDTAMYYCARRGHYGDYFDYWGQGTLVTVSS VL: SYELTQPPSVSVSPGQTARITCSGDALPKKYAYWYHQKSGQAPVLVIYEDRRRPSEIPERFSGSSSGTMATLTITGAQVEDEGVYFCYSRDRAGNQRVFGGGTQLTVLG",Kd,human C2 S278A,6.5 nM
same,Kd,[1],7 nM
same,Kd,human C2 E686A,32.6 nM
